{
  "source": "patent US20170283830A1",
  "molecular_target": "CD117 (mast/stem cell growth factor receptor, proto-oncogene c-Kit protein) on CD117+ mouse bone marrow cells (mouse) (UniProt P05532)",
  "sequence (P05532 25-979)": "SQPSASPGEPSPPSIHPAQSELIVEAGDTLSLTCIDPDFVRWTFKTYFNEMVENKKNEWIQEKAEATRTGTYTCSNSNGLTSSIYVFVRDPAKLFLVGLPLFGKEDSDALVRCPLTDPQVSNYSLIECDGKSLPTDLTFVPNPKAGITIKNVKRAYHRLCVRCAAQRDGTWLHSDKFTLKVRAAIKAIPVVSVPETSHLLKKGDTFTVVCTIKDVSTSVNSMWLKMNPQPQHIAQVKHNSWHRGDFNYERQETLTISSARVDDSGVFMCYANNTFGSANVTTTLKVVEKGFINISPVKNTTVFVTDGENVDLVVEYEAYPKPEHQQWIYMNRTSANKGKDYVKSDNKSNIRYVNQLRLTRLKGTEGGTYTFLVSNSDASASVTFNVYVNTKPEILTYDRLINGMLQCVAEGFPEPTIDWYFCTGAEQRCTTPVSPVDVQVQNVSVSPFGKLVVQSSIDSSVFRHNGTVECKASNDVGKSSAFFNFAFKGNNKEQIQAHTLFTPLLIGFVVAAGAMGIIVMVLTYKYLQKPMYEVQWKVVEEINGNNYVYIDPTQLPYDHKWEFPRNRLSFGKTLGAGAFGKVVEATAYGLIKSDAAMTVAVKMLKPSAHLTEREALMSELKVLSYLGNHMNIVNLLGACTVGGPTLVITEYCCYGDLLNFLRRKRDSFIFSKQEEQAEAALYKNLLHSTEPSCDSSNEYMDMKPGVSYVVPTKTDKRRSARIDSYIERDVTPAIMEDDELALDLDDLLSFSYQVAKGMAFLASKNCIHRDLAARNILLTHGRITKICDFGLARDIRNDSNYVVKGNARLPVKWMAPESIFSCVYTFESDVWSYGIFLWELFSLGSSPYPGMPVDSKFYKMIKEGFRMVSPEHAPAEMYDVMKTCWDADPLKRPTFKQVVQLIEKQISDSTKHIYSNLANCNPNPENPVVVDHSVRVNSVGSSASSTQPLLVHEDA",
  "experiment": "cell-based or functional assay",
  "data": [
    {"substance": "Recombinant murine SCF, catalog #250-03, PeproTech (from UniProt P20826 26-189) (ligand)", "values": [
      {"measurement": "HDR activity in CD117+ cells (recombination between reporter gene constructs)", "result": 2, "unit": "fold"},
      {"measurement": "γtcPNA4/donor DNA-mediated gene editing in CD117+ cells (% GFP expressing cells, flow cytometry)", "result": 15, "unit": "%"}
    ]}
  ]
}
